Reference: the supplement of paper PMC10567573

B1: JUNB (parent)
chain: FVKALDDLHKMNHVTPPNVSLGAT
B2: KCNG1 (parent)
chain: AVNLSVSTLPSLREEEEQVRAHAP

Variants of: B1
Assay: protein stability index of a GFP-peptide fusion (GPS, HEK-293T) (PSI 1-6); higher = more stable
Settings: c terminus: a fixed tail appended
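Note: lentivirally expressed fusions sorted by FACS into six bins by GFP to DsRed ratio, PSI derived from sequencing read proportions per bin multiplied by bin number.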

Protein stability index of substitutions, site by site:
A4: S 2.03 | Y 2.85 | D 2.24 | N 1.66 | P 2.6 | C 1.63 | T 2.34 | H 2.03 | W 3.85
H9: F 3.03 | V 1.79 | K 1.9 | M 2.64 | E 2.08 | W 4.16 | Y 1.54 | L 1.44 | P 1.69 | C 2.04 | D 2.05 | T 2.15
S20: L 1.56 | N 1.96 | K 2.81 | H 1.81 | T 2.09 | P 2.12 | F 1.39 | D 1.72 | Y 3.04 | V 1.77 | G 2.46
L5: N 2.38 | Q 2.08 | Y 2.82 | E 3.33 | R 1.62 | D 2.72 | I 1.75 | T 2.22 | C 1.87 | F 2.1 | W 3.57
L8: N 1.93 | H 2.26 | R 1.89 | V 1.74 | A 1.51 | T 2.46 | P 2.31 | Y 1.52 | G 2.26 | D 1.86 | F 2.59
P17: V 1.71 | R 1.44 | A 1.89 | M 2.35 | W 3.22 | E 1.48 | N 1.8 | S 1.83 | D 1.97 | T 1.62 | F 2.56 | C 2.08 | K 2.64
A23: G 1.27 | V 2 | N 2.02 | Q 1.46 | H 1.71 | Y 1.65 | P 2.46 | C 2.16 | E 2.17 | T 1.31 | R 2.39 | D 2.11 | F 1.41 | I 1.77 | K 2.06
G22: P 2.15 | R 1.2 | K 1.46 | T 1.82 | A 1.85 | I 2.41 | E 2.12 | V 2.27 | Y 1.24 | L 2.5
K10: A 2.79 | I 2.35 | G 1.5 | R 2.77 | P 2.61 | E 2.98 | M 1.72 | N 2.07 | L 1.72 | V 1.48 | T 2.21
F1: D 4.6 | W 2.51 | Q 3.52 | L 3.29 | T 4.37 | P 4.57 | S 4.09 | N 3.95 | E 4.27 | R 4.38 | G 4.05 | I 2.84 | H 4 | V 3.59 | C 2.61 | K 3.92
V14: P 1.46 | S 1.43 | E 1.93 | D 1.87 | G 2.37 | K 1.53 | C 2.3 | M 1.51 | A 2.24
P16: C 2.48 | L 1.53 | H 1.81 | D 1.76 | T 2.34 | G 1.9 | I 1.58 | M 1.68 | Q 2.11 | N 1.14 | Y 1.64
V2: Q 3.18 | P 3.05 | M 2.7 | A 2.96 | W 2.47 | T 3.33 | K 3.07 | D 4.22 | H 3.07 | I 2.22 | C 2.96 | N 4.52 | S 4.07
T24: D 1.86 | G 1.56 | R 1.33 | M 1.81 | I 1.92 | F 2.66 | Y 1.62 | W 1.54 | C 1.33 | N 1.6 | E 2.52 | S 2
H13: G 1.91 | L 2.56 | P 1.75 | Y 1.6 | T 2.75 | W 2.66 | S 1.2 | M 2.06 | E 3.33 | C 1.67 | A 1.92 | R 2.4 | K 1.74 | Q 2.08
T15: M 2.3 | G 2.04 | P 2.18 | L 2.03 | Q 2.06 | Y 1.67 | H 2.12 | K 2.09 | C 2.06 | D 1.9 | A 2.79 | V 1.6
N12: V 1.67 | F 1.74 | I 1.67 | E 2.01 | C 2.34 | A 2.14 | D 1.61 | Y 3.14 | P 2.08 | M 1.65 | H 2.57 | Q 1.58
L21: T 1.78 | Y 1.52 | M 2.16 | P 1.96 | H 1.74 | A 2.17 | D 2.51 | S 2.25 | I 1.9 | C 1.38 | N 1.89 | E 2.9 | Q 2.36 | K 2.44 | F 2.09
D6: H 1.57 | S 1.46 | E 1.97 | P 2.08 | K 2.39 | G 2.07
D7: H 3.12 | S 1.47 | E 1.57 | K 1.8 | C 2.15 | V 2.27
V19: I 1.82 | Y 1.47 | S 1.63 | Q 1.79 | F 1.43 | M 1.82 | G 1.49 | H 2.41 | E 1.67 | N 1.98
N18: C 1.69 | Y 1.73 | H 1.62 | F 2.41 | V 1.63 | I 1.4 | S 2.61 | M 2.5 | D 1.73 | T 1.47 | W 2.86
K3: R 1.76 | V 1.96 | I 1.98 | W 2.47 | F 3.15 | E 2.44 | Q 1.94 | M 1.74 | N 1.86 | L 1.66 | Y 1.73 | T 2.02 | P 2.97
M11: P 1.4 | R 2.28 | C 2.31 | N 2.01 | Y 1.29 | K 1.83 | V 1.7 | T 2.06 | D 2.29 | E 3.21 | I 2.26 | A 2.29 | W 2.23 | S 2.11

Variants of: B2
Assay: as above
Settings: c terminus: a fixed tail appended

Protein stability index of substitutions, site by site:
N3: A 4.75 | S 4.87 | D 5.26 | H 4.72 | M 4.37 | I 3.05 | E 5.73 | G 5.03 | F 3.02 | K 4.43 | Q 4.77 | C 4.45 | V 3.06 | Y 3.66 | L 2.41 | P 5.25 | T 4.75 | W 3.66 | R 4.83
A1: V 4.39 | T 5.46 | K 5.28 | Q 4.28 | E 4.75 | W 3.81 | R 5.31 | P 5.12 | H 5.12 | S 4.82 | Y 2.47 | C 5 | G 4.96 | M 4.61 | N 5.02 | L 4.14 | D 5.52 | I 4.48 | F 2.57
V2: W 4.1 | S 5.41 | C 4.98 | T 5.23 | D 5.64 | A 5.6 | P 5.57 | L 5.04 | K 5.63 | Y 4.93 | H 5.54 | G 5.46 | E 5.39 | Q 5.33 | F 4.83 | N 5.59 | M 4.79 | I 4.89 | R 5.04
